B1: Hammerhead Ribozyme (parent)
chain: ACCGGAUGUGCUUUCCGGUCUGAUGAGUCCGUGAGGACGAAACAG

Variants of: B1
Assay: self-cleavage, relative activity (ratio to wild type); higher = more cleavage; co-transcriptional

First: ACCGGAUGUGCUCUCCGGUCUGAUGAGUCCGUGAGGAUGAAACAG [U13C C38U]
Second: ACCGGAUGUGCUUUCCGGUCUGAUGAGUCUGUGAGGACGAAACAG [C30U]
The self-cleavage of the first is higher: 1.11 for the first, 1.02 for the second.

Going from ACCGGAUGUGCUUUCCGGUCUGAUGAGUCAGUGAGGAAGAAACAG [C30A C38A] to ACCGGCUGUGCUUUCCGGUCUGAUUAGUCCGUGAGGACGAAACAG [A6C G25U], the self-cleavage falls from 0.386 to 0.219.

Going from AACGGAUGUGCUUUCCGGUCUGAUGAGUCCGUGAGGACGAAACAC [C2A G45C] to ACCGGAUGUGGUUUCCGGUCUGAAGAGUCCGUGAGGACGAAACAG [C11G U24A], the self-cleavage rises from 0.42 to 0.829.

Going from ACCAGAUGUGCUUUCCGGUCUGAUGACUCCGUGAGGACGAAACAG [G4A G27C] to ACCGGAUAUGCUUUCCGGUCUGAUGGGUCCGUGAGGACGAAACAG [G8A A26G], the self-cleavage rises from 0.297 to 0.371.

First: ACCGGAUGUGCUUUCCGGUCUGAUGAGUCCGUGCGGACGAAACAG [A34C]
Second: ACCGGAUGUGCUUUCCGGUCUGAUGAGUACGUGAGCACGAAACAG [C29A G36C]
The self-cleavage of the first is higher: 0.909 for the first, 0.718 for the second.

Compared with ACCGGAUGUGCUUUCCGGGCUGAUGAGUCCGUGAGGACGAAUCAG [U19G A42U], ACCCGAUGUGCUUUCCGGUCUUAUGAGUCCGUGAGGACGAAACAG [G4C G22U] is lower in self-cleavage: 0.345 for the first, 0.238 for the second.

Going from ACCGGAUGUGCUUUCCUGUCUGAUGAGUCCGUGAGGACGGAACAG [G17U A40G] to ACCGGAUGUGCUUUCCGGUCUGAUGAGUCCGUGAGGGCGAAAGAG [A37G C43G], the self-cleavage falls from 0.388 to 0.385.

First: ACCGGCUGUGCUUUCCGGUCUGAUGAGUCAGUGAGGACGAAACAG [A6C C30A]
Second: ACCGGAUGGGCUUUCCGGUCUGAUGAGUCCGUGAGGACGAAACAU [U9G G45U]
The self-cleavage of the first is higher: 0.588 for the first, 0.454 for the second.

First: ACCGGAUGUGCAUUCCGGUCUGUUGAGUCCGUGAGGACGAAACAG [U12A A23U]
Second: ACCGGAUGUGCUUUCCGGUCUGAUGAGUCCGUGAGCACGGAACAG [G36C A40G]
The self-cleavage of the first is lower: 0.317 for the first, 0.368 for the second.

Compared with ACCGGAUGUGCUUUCCGGUCUGAUCUGUCCGUGAGGACGAAACAG [G25C A26U], ACCGGAUGUGCUUUCCGGUCUGAUGAAUCCGUGAGGUCGAAACAG [G27A A37U] is higher in self-cleavage: 0.337 for the first, 0.522 for the second.

Going from ACUGGAUGAGCUUUCCGGUCUGAUGAGUCCGUGAGGACGAAACAG [C3U U9A] to ACCGGAUGUGCUUUCCAGUCUGAUGAGUGCGUGAGGACGAAACAG [G17A C29G], the self-cleavage falls from 1.03 to 0.462.

Going from AUCGGAUGUGCUAUCCGGUCUGAUGAGUCCGUGAGGACGAAACAG [C2U U13A] to ACCGGAGGUGCUUUCCCGUCUGAUGAGUCCGUGAGGACGAAACAG [U7G G17C], the self-cleavage falls from 1.52 to 0.552.

First: ACAUGAUGUGCUUUCCGGUCUGAUGAGUCCGUGAGGACGAAACAG [C3A G4U]
Second: ACCGGAUGUGCUUUCCGGACUGAUGAGUCCGUGAGGACGAAAGAG [U19A C43G]
The self-cleavage of the first is lower: 0.282 for the first, 0.346 for the second.

First: ACAGGAUGUGCUUUCCGGUCUGAUGAGUGCGUGAGGACGAAACAG [C3A C29G]
Second: ACCGGAUGUGCUUUCCGGUCUGGUGACUCCGUGAGGACGAAACAG [A23G G27C]
The self-cleavage of the first is higher: 0.397 for the first, 0.285 for the second.

Compared with ACCGGAUGUGCUUUCCUGUCUGAUGAGCCCGUGAGGACGAAACAG [G17U U28C], ACCGGAUGUGAUUUCAGGUCUGAUGAGUCCGUGAGGACGAAACAG [C11A C16A] is higher in self-cleavage: 0.495 for the first, 1.41 for the second.

Going from AUCGGAUGUGCUUUCCGAUCUGAUGAGUCCGUGAGGACGAAACAG [C2U G18A] to ACCGGAUGUGCUUUCCGUUCUGAUGAGUCCGUGAGGACGAAACAC [G18U G45C], the self-cleavage falls from 1.19 to 0.476.

Compared with ACCGGAUGUGCUUUCCGGUCUGAUGAGUCCGUCAGGACGAAAAAG [G33C C43A], ACCGGAUGUGCUUUCCGGUCUGAUGAGUCCGCGCGGACGAAACAG [U32C A34C] is higher in self-cleavage: 0.314 for the first, 0.95 for the second.

First: CCCGGAUGUGCUUUCCGGUCUGAUGAGUCCGUGAGGACGAAACCG [A1C A44C]
Second: ACCGGAUGUGCUUUCCGGUCUGAUGAGUCCCUGAGGACGAAACAC [G31C G45C]
The self-cleavage of the first is lower: 0.376 for the first, 0.515 for the second.

Going from ACCGAAUGUGCUUUCCGGUCUGAUGAGUCCGUGAGGACGAAACAA [G5A G45A] to ACCGGAUGUGCUUUCCGAUCUGAUGAGUCCGUGUGGACGAAACAG [G18A A34U], the self-cleavage falls from 0.61 to 0.515.

First: ACCGGAUGAGCUUUCCGGUCUGAUGAGUCCGUGAGGACGAAACAU [U9A G45U]
Second: ACCGGAUGUCCUUUCCGGUCUGAUGAUUCCGUGAGGACGAAACAG [G10C G27U]
The self-cleavage of the first is higher: 0.638 for the first, 0.555 for the second.

Going from ACCGGAUGUGCUUUCCGUUGUGAUGAGUCCGUGAGGACGAAACAG [G18U C20G] to ACCGGAUCUGCGUUCCGGUCUGAUGAGUCCGUGAGGACGAAACAG [G8C U12G], the self-cleavage rises from 0.382 to 1.43.

Compared with ACCGGAUGUACUUUCCGGUCUGAUGAGUCCGUGAUGACGAAACAG [G10A G35U], ACCGGAUGUGCUUUCCGGUCUGAUGAGUCGGUUAGGACGAAACAG [C30G G33U] is higher in self-cleavage: 0.925 for the first, 1.02 for the second.

Compared with ACCGGAUGGGCUUACCGGUCUGAUGAGUCCGUGAGGACGAAACAG [U9G U14A], ACCGGAUGUGGUUUCCGGUCAGAUGAGUCCGUGAGGACGAAACAG [C11G U21A] is lower in self-cleavage: 0.916 for the first, 0.735 for the second.

Going from ACCGGAUGCGCUUUCUGGUCUGAUGAGUCCGUGAGGACGAAACAG [U9C C16U] to ACCGGAUGUGCUUUCCGGUCGGAUGAGUCCGUGAGGACGAAACCG [U21G A44C], the self-cleavage falls from 1.41 to 0.285.

First: ACCGGAUGUGCUCUCCCGUCUGAUGAGUCCGUGAGGACGAAACAG [U13C G17C]
Second: ACCGGAUGUGCUUUCCGGUCUGAUGCGUCCGUGAGGACGAAAUAG [A26C C43U]
The self-cleavage of the first is higher: 0.573 for the first, 0.343 for the second.

Compared with ACCGGAAGUGCUUUCCGGUCUGAUGAGGCCGUGAGGACGAAACAG [U7A U28G], ACCGGAUGUGCUUUCCGGACUGAUGAGUCCGUGAGGACGAAUCAG [U19A A42U] is lower in self-cleavage: 0.758 for the first, 0.378 for the second.

Going from ACAGGAUGUGCUUUACGGUCUGAUGAGUCCGUGAGGACGAAACAG [C3A C15A] to ACCGGAUGUGCUUUCCGGUCGGAUGAGUCCGUGAGGACGACACAG [U21G A41C], the self-cleavage rises from 0.312 to 0.404.

ACCGGAUGUGCUUUCCGGUCUGAUGAGCCCAUGAGGACGAAACAG [U28C G31A] and ACCGGAUGUGCUUUCCGGUCUGAUGAGUCCGUAAGGACGAAACAG [G33A] are the same in self-cleavage: 1.03 for the first, 1.03 for the second.

Work on ACCGGAUGUGCUUUCCGGUCUGAUGAGUCCGAGAGUACGAAACAG [U32A G36U] yielded a self-cleavage of 0.668.
